In patent US20220251184A1 (Regeneron, published 2022):

T1: mouse BMP6 (R&D Systems, Cat #6325-BM) (mouse, UniProt P20722 372-510, limits assumed)
T1 sequence: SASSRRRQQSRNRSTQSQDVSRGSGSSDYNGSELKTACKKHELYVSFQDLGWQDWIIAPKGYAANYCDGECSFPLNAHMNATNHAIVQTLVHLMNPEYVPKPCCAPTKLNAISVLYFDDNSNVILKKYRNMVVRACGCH

T2: human BMP6 (R&D Systems, Cat #507-BP) (human, UniProt P22004 375-513, limits assumed)
T2 sequence: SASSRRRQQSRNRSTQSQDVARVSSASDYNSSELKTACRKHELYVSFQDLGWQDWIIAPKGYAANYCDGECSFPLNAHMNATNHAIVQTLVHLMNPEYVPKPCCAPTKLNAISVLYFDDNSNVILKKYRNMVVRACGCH

T3: Human BMP9 (human, UniProt Q9UK05 320-429)
T3 sequence (looked up): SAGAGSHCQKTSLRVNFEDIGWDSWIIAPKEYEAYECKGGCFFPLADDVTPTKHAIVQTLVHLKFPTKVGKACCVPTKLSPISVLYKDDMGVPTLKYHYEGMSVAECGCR

T4: Human BMP10 (human, UniProt O95393 317-424)
T4 sequence (looked up): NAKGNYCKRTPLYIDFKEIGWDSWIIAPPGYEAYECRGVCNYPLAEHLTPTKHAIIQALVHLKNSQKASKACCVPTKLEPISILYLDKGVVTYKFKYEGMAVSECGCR

T5: Human BMP14/GDF5 (human, UniProt P43026 382-501)
T5 sequence (looked up): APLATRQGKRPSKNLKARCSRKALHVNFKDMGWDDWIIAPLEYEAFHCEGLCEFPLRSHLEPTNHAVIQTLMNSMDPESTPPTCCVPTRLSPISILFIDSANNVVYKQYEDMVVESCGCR


What was measured:
[1] = target: T1, mouse BMP6 (R&D Systems, Cat #6325-BM); test: cell-based or functional assay
[2] = target: T2, human BMP6 (R&D Systems, Cat #507-BP); test: cell-based or functional assay
[3] = target: T1, mouse BMP6 (R&D Systems, Cat #6325-BM); test: SPR (MASS-1), mAb captured on anti-human Fc, mBMP6 in solution, 25 C
Procedure: (§1) Equilibrium dissociation constants (KD values) for human and mouse BMP6 binding to purified anti-BMP6 monoclonal antibodies of this invention were determined using a real-time surface plasmon resonance (SPR) biosensor instrument, MASS-1. All binding studies were performed in 10 mM HEPES, 150 mM NaCl, 3 mM EDTA, 1 μg/mL Heparin, and 0.05% v/v Surfactant Tween-20, pH 7.4 (HBS-EHT) running buffer at 25° C. and 37° C. The HCA sensor surface was first derivatized by amine coupling the monoclonal mouse anti-human Fc antibody (GE, #BR100839) and anti-BMP6 monoclonal antibodies were individually captured. Different concentrations of human BMP6 reagents (hBMP6; R&D Systems, Cat #507-BP; 60 nM-0.94 nM; 4-fold serial dilution) or mouse BMP6 (mBMP6; R&D Systems, Cat #6325-BM; 60 nM and 15 nM) prepared in HBS-EHT running buffer were injected over the captured anti-BMP6 monoclonal antibody for 4 minutes at a flow rate of 30 μL/minute, while the dissociation of BMP6 reagent bound to captured anti-BMP6 monoclonal antibody was monitored for 10 minutes in HBS-EHT running buffer. Kinetic association (kₐ) and dissociation (kd) rate constants were determined by fitting the real-time binding sensorgrams to a 1:1 binding model with mass transport limitation using Scrubber 2.0c software. Binding dissociation equilibrium constant (KD) and dissociative half-life (t½) for different anti-BMP6 monoclonal antibodies were calculated from the kinetic rate constants as: […]

Human BMP9 = target: T3, Human BMP9; test: BLI (Octet HTX), mAb captured on Protein A sensor, 100 nM ligand, 25 C
Procedure: (§2) Binding cross-reactivity of anti-BMP6 monoclonal antibodies to BMP6 family members, (Human: BMP6, BMP5, BMP7, BMP8A, BMP9, BMP10, BMP12, BMP14, BMP3b, Activin A, and GDF3 and mouse: BMP6 and GDF6) was determined using a real-time Bio-Layer Interferometry (BLI) biosensor using Octet HTX instrument. All binding studies were performed in 10 mM HEPES, 150 mM NaCl, 3 mM EDTA, 1 mg/mL BSA, 50 μg/mL Heparin, and 0.05% v/v Surfactant Tween-20, pH 7.4 (HBS-EBHT) buffer at 25° C. with the plate shaking at a speed of 1000 rpm. To assess binding cross-reactivity, Protein A coated Octet biosensor (Pall ForteBio Corp., #18-5010) was first dipped in wells containing […] of anti-BMP6 monoclonal antibodies for 4 minutes followed by submerging in wells containing 100 nM of different BMP6 family members for 4 minutes. The biosensors were washed in HBS-EBHT buffer in between every step of the experiment. At the end of each cycle, the Protein A biosensor was regenerated using three alternate 5 second dips in 10 mM Glycine pH 2.0 and 10 second dip HBS-EBHT buffer. The real-time binding response was monitored during the course of the experiment and the binding response at the end of every step was recorded and tabulated as shown in Tables 8A and 8B.

[4] = target: T2, human BMP6 (R&D Systems, Cat #507-BP); test: as above
Procedure: as §2

Human BMP10 = target: T4, Human BMP10; test: as above
Procedure: as §2

Human BMP14/GDF5 = target: T5, Human BMP14/GDF5; test: as above
Procedure: as §2

[5] = target: T2, human BMP6 (R&D Systems, Cat #507-BP); test: SPR (MASS-1), mAb captured on anti-human Fc, hBMP6 in solution, 37 C
Procedure: as §1

[6] = target: T2, human BMP6 (R&D Systems, Cat #507-BP); test: SPR (MASS-1), mAb captured on anti-human Fc, hBMP6 in solution, 25 C
Procedure: as §1

IC50 [M], inhibition of 5 nM mBMP6 activation of W-20-17/BRE-luc cells (luciferase) [1] [M]	IC50 [M], inhibition of 1 nM hBMP6 activation of Hep3B/BRE-luc cells (luciferase) [2] [M]	Kd [3] [nM]	koff [3] [s⁻¹]	kon [3] [M⁻¹ s⁻¹]	t1/2 [3] [h]	binding response (Human BMP9) [nm]	binding response [4] [nm]	binding response (Human BMP10) [nm]	binding response (Human BMP14/GDF5) [nm]	kon [5] [M⁻¹ s⁻¹]	koff [6] [s⁻¹]	kon [6] [M⁻¹ s⁻¹]	t1/2 [6] [h]	Kd [5] [nM]	t1/2 [5] [h]	Kd [6] [nM]	Binder
1.1e-08	1.6e-09	3.39	0.000127	37400	1.52	0.01	0.21	0.01	-0.01	41600	4.14e-05	283000	4.65	–	–	–	H4H17871P (antibody, V domains shown, Fully human antibody; also called anti-BMP6 monoclonal antibody; BMP6 antibody of the invention) VH: EVQLVESGGGLVQPGGSLRLSCAASGFTFNNYAMSWVRQAPGKGLEWVSAISGSGDSTYYADSVKGRFTISRDNSKNTLYLQMNSLRAEDTAVYYCAKRSRSSPFDPWGQGTLVTVSS VL: not shown
1.9e-09	2.5e-10	3.55	0.00013	36600	1.48	0	0.29	-0.01	-0.02	61100	6.3e-05	178000	3.05	1.34	2.35	0.355	H4H17855P (antibody, V domains shown, Fully human antibody; also called anti-BMP6 monoclonal antibody; BMP6 antibody of the invention) VH: EVQLVESGGGLVQPGGSLRLSCAASGFTFSSYAMSWVRQAPGKGLEWVSAISGSGGRTYYTDSVKGRFTMSRDNSKNTLYLQMNSLRAEDTAVYYCAKRPYNSPFDPWGQGTLVTVSS VL: EIVLTQSPGTLSLSPGEGATLSCRASQSVSSSYLAWYQQKPGQAPRLLIYGASSRATGIPDRFSGSGSGTDFTLTISRLEPEDFVVYYCQHFGGTPFTFGGGTKVEIK
